According to the supplement of paper PMC9233669:
This sample holds only a part of the variants without activity.

Experiments:
biotinyl-Phe-oxazolone = experiment: self-aminoacylation, catalytic enhancement (BFO) (fold over background); higher = more active; k-Seq, kA / k0A0; sequences stand for … in GGGAAUGGAUCCACAUCUACGAAUUC…UUCACUGCAGACUUGACGAAGCUG
Summary of the method: (§1)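 Mutagenized RNA pools with a 21-nt variable region (0.43 μM) were reacted with each biotinyl-aminoacyl-oxazolone at 2–1250 μM for 90 minutes at room temperature, in 50 μL HEPES/NaCl/KCl/MgCl2/CaCl2 buffer containing 5% acetonitrile at pH 6.9–7.0. RNA captured on streptavidin was quantified by triplicate qPCR and by Illumina sequencing. The fraction reacted for each sequence was fit to a pseudo-first-order model with bootstrapping, and catalytic enhancement is the median kA divided by the uncatalyzed rate, taken as the low-activity peak of a bimodal Gaussian fit.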

biotinyl-Val-oxazolone = experiment: self-aminoacylation, catalytic enhancement (BVO) (fold over background); higher = more active; k-Seq, kA / k0A0; sequences stand for … in GGGAAUGGAUCCACAUCUACGAAUUC…UUCACUGCAGACUUGACGAAGCUG
Summary of the method: as §1

biotinyl-Trp-oxazolone = experiment: self-aminoacylation, catalytic enhancement (BWO) (fold over background); higher = more active; k-Seq, kA / k0A0; sequences stand for … in GGGAAUGGAUCCACAUCUACGAAUUC…UUCACUGCAGACUUGACGAAGCUG
Summary of the method: as §1

biotinyl-Leu-oxazolone = experiment: self-aminoacylation, catalytic enhancement (BLO) (fold over background); higher = more active; k-Seq, kA / k0A0; sequences stand for … in GGGAAUGGAUCCACAUCUACGAAUUC…UUCACUGCAGACUUGACGAAGCUG
Summary of the method: as §1

biotinyl-Met-oxazolone = experiment: self-aminoacylation, catalytic enhancement (BMO) (fold over background); higher = more active; k-Seq, kA / k0A0; sequences stand for … in GGGAAUGGAUCCACAUCUACGAAUUC…UUCACUGCAGACUUGACGAAGCUG
Summary of the method: as §1

biotinyl-Ile-oxazolone = experiment: self-aminoacylation, catalytic enhancement (BIO) (fold over background); higher = more active; k-Seq, kA / k0A0; sequences stand for … in GGGAAUGGAUCCACAUCUACGAAUUC…UUCACUGCAGACUUGACGAAGCUG
Summary of the method: as §1

Sequence	self-aminoacylation (biotinyl-Phe-oxazolone)	self-aminoacylation (biotinyl-Val-oxazolone)	self-aminoacylation (biotinyl-Trp-oxazolone)	self-aminoacylation (biotinyl-Leu-oxazolone)	self-aminoacylation (biotinyl-Met-oxazolone)	self-aminoacylation (biotinyl-Ile-oxazolone)
CCACACUUAAAGCAAUAGGUC [Fam1B.1 aminoacylation ribozyme variant]	1.24	0.913	0.592	0.662	0.509	0.67
CCACACUUAAAGCAAUCUGUC [Fam1B.1 aminoacylation ribozyme variant]	0.686	0.676	0.349	0.414	0.391	0.463
CCACACUUCAAACAAACGGUC [Fam1B.1 aminoacylation ribozyme variant]	0.66	0.697	0.471	0.598	0.626	0.692
CCACACUUCAAACAAGCGGUC [Fam1B.1 aminoacylation ribozyme variant]	0.971	0.746	0.603	0.728	0.68	0.922
CCACACUUCAAACAAUCGGUC [Fam1B.1 aminoacylation ribozyme variant]	102	1.53	47	2.32	1.46	1.38
CCACACUUCAACCAAUCCGUC [Fam1B.1 aminoacylation ribozyme variant]	1.33	0.867	0.919	0.784	0.672	1.07
CCACACUUCAACCAAUCGGAC [Fam1B.1 aminoacylation ribozyme variant]	2.28	1.02	1.26	0.981	0.789	0.897
CCACACUUCAACCAAUCGGUG [Fam1B.1 aminoacylation ribozyme variant]	4.06	2.91	5.38	6.37	3.66	3.05
CCACACUUCAACCAUUCGGUC [Fam1B.1 aminoacylation ribozyme variant]	6.93	1.35	1.98	1.25	1.52	1.51
CCACACUUCAACGAAUCGGUC [Fam1B.1 aminoacylation ribozyme variant]	11.2	1.09	9.08	0.962	1.03	0.873
CCACACUUCAAGAAAUCGGAC [Fam1B.1 aminoacylation ribozyme variant]	0.823	0.685	0.393	0.572	0.663	0.898
CCACACUUCAAGAUAUCGGUC [Fam1B.1 aminoacylation ribozyme variant]	0.633	0.795	0.657	0.736	0.624	0.774
CCACACUUCAAGCAAACAGUC [Fam1B.1 aminoacylation ribozyme variant]	1.09	0.757	0.375	0.674	0.609	0.816
CCACACUUCAAGCAAACGGUU [Fam1B.1 aminoacylation ribozyme variant]	1.41	1.59	0.973	1.34	1.25	1.32
CCACACUUCAAGCAACCGGAC [Fam1B.1 aminoacylation ribozyme variant]	0.734	1.07	0.606	0.602	0.839	1.15
CCACACUUCAAGCAAGCUGUC [Fam1B.1 aminoacylation ribozyme variant]	0.716	0.565	0.346	0.404	0.451	0.504
CCACACUUCAAGCAAUACGUC [Fam1B.1 aminoacylation ribozyme variant]	1.36	0.925	0.556	0.563	0.457	0.705
CCACACUUCAAGCAAUCAGCC [Fam1B.1 aminoacylation ribozyme variant]	3.01	1.72	2.26	1.51	0.884	1.04
CCACACUUCAAGCAAUCAGUA [Fam1B.1 aminoacylation ribozyme variant]	1.17	0.842	0.842	0.899	0.861	0.983
CCACACUUCAAGCAAUCAGUU [Fam1B.1 aminoacylation ribozyme variant]	2.42	1.29	1.12	0.925	0.802	1.15
CCACACUUCAAGCAAUCAUUC [Fam1B.1 aminoacylation ribozyme variant]	1.64	0.671	0.686	0.56	0.539	0.649
CCACACUUCAAGCAAUCCCUC [Fam1B.1 aminoacylation ribozyme variant]	0.896	1.15	1.35	0.729	0.846	1.04
CCACACUUCAAGCAAUCCGUC [Fam1B.1 aminoacylation ribozyme variant]	1.34	1.01	0.828	0.664	0.659	0.894
CCACACUUCAAGCAAUCGCUA [Fam1B.1 aminoacylation ribozyme variant]	1.05	1.94	1.27	1.44	1.22	1.41
CCACACUUCAAGCAAUCGCUG [Fam1B.1 aminoacylation ribozyme variant]	0.653	1.12	0.872	0.928	1.13	1.22
CCACACUUCAAGCAAUCUAUC [Fam1B.1 aminoacylation ribozyme variant]	0.891	0.683	0.287	0.533	0.422	0.557

Sequence	self-aminoacylation (biotinyl-Phe-oxazolone)	self-aminoacylation (biotinyl-Val-oxazolone)	self-aminoacylation (biotinyl-Trp-oxazolone)	self-aminoacylation (biotinyl-Leu-oxazolone)	self-aminoacylation (biotinyl-Met-oxazolone)	self-aminoacylation (biotinyl-Ile-oxazolone)
CCACACUUCAAGCAAUCUGUG [Fam1B.1 aminoacylation ribozyme variant]	0.656	0.635	0.383	0.657	0.547	0.514
CCACACUUCAAGCAAUUGAUC [Fam1B.1 aminoacylation ribozyme variant]	0.853	0.538	0.518	0.536	0.368	0.573
CCACACUUCAAGCACUCGAUC [Fam1B.1 aminoacylation ribozyme variant]	0.872	0.713	0.436	0.546	0.43	0.604
CCACACUUCAAGCACUCGGGC [Fam1B.1 aminoacylation ribozyme variant]	13.2	3.61	3.37	2.62	3.49	2.58
CCACACUUCAAGCACUCGGUC [Fam1B.1 aminoacylation ribozyme variant]	0.887	0.996	0.733	0.757	0.777	0.855
CCACACUUCAAGCACUGGGUC [Fam1B.1 aminoacylation ribozyme variant]	0.974	1.1	1.03	0.971	0.66	0.807
CCACACUUCAAGCAUGCGGUC [Fam1B.1 aminoacylation ribozyme variant]	0.814	2.27	2.22	1.62	1.57	1.41
CCACACUUCAAGCAUUCGAUC [Fam1B.1 aminoacylation ribozyme variant]	1.11	0.856	0.748	0.577	0.629	0.664
CCACACUUCAAGCAUUCGCUC [Fam1B.1 aminoacylation ribozyme variant]	2.04	2.88	2.64	2.41	2.42	2.27
CCACACUUCAAGCAUUCGGAC [Fam1B.1 aminoacylation ribozyme variant]	0.829	1.29	0.71	0.681	0.977	1.35
CCACACUUCAAGCAUUCGGUG [Fam1B.1 aminoacylation ribozyme variant]	68.5	5.97	7.88	11	8.89	5.54
CCACACUUCAAGCCAUCGGUC [Fam1B.1 aminoacylation ribozyme variant]	0.854	1.24	0.932	0.986	0.95	0.995
CCACACUUCAAGCCAUCGGUG [Fam1B.1 aminoacylation ribozyme variant]	31.3	4.15	4.89	6.79	4.72	3.57
CCACACUUCAAGCCAUUGGUC [Fam1B.1 aminoacylation ribozyme variant]	0.631	1.09	0.734	0.848	0.874	0.787
CCACACUUCAAGCGAUCAGUC [Fam1B.1 aminoacylation ribozyme variant]	1.37	0.776	0.843	0.665	0.699	0.884
CCACACUUCAAGCGAUCGGAC [Fam1B.1 aminoacylation ribozyme variant]	0.588	1.27	1.36	1.26	1.33	1.22
CCACACUUCAAGCGAUCGGUC [Fam1B.1 aminoacylation ribozyme variant]	1.72	1.02	1.51	0.815	0.743	0.887
CCACACUUCAAGCUAUCGGUG [Fam1B.1 aminoacylation ribozyme variant]	33	3.77	5.5	6.48	5.19	3.88
CCACACUUCAAGCUAUUGGUC [Fam1B.1 aminoacylation ribozyme variant]	0.896	0.759	0.661	0.595	0.643	0.797
CCACACUUCAAGCUCUCGGUC [Fam1B.1 aminoacylation ribozyme variant]	0.716	1.42	1.1	1.25	1.14	1.21
CCACACUUCAAGGAAUCGGCC [Fam1B.1 aminoacylation ribozyme variant]	1.42	2.4	4.4	2.39	2.08	1.89
CCACACUUCAAGGAAUCGGUA [Fam1B.1 aminoacylation ribozyme variant]	0.499	1.18	0.902	1.23	1	1.26
CCACACUUCAAGGUAUCGGUC [Fam1B.1 aminoacylation ribozyme variant]	0.829	0.995	1.28	0.907	0.95	0.941
CCACACUUCAAGUCAUCGGUC [Fam1B.1 aminoacylation ribozyme variant]	0.991	1.32	0.698	1.31	1.04	1.05
CCACACUUCAAUCAAUAGGUC [Fam1B.1 aminoacylation ribozyme variant]	1.11	0.646	0.511	0.517	0.569	0.573
